Laboratory results published in PMC3567257 (Biochemistry, 2012).
No end group written: not given here. *: point of attachment. 5FAM = O=C1OC2(c3ccc(O)cc3Oc3cc(O)ccc32)c2ccc(C(=O)*)cc21

B4: GST-JARID1A PHD3 (domain or fragment, UniProt P29375 1601-1660, looked up)
chain: EESDDENAVCAAQNCQRPCKDKVDWVQCDGGCDEWFHQVCVGVSPEMAENEDYICINCAK
B5: H3(1-14)K4me3K14fluo (peptide, UniProt P68431 2-15, looked up)
peptide: ARTKQTARKSTGGK
modifications: trimethyl-lysine at position 4; 5-carboxyfluorescein on lysine 14
B6: H3(1-14)K4unmodifiedK14fluo (peptide, UniProt P68431 2-15, looked up)
peptide: ARTKQTARKSTGGK(5FAM)

Tests used:
[1] = molecular target: B5; assay: fluorescence polarisation
[2] = molecular target: T1, (HQ)5-HaloTag-JMJD2A double tudor domain (UniProt O75164 895-1011); assay: HaloTag plate binding assay
T1 sequence (looked up): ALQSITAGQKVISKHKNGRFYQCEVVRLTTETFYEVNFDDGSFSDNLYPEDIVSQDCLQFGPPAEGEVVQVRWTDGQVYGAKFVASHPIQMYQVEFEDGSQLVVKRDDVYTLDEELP

[3] = molecular target: B6; assay: fluorescence polarisation
[4] = molecular target: T2, GST-JARID1A PHD3 D1624N (UniProt P29375 1601-1660, D1624N); assay: fluorescence polarisation
T2 sequence (looked up): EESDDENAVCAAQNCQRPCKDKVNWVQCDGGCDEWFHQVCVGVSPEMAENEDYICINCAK

[5] = molecular target: T3, GST-JARID1A PHD3 D1629A (UniProt P29375 1601-1660, D1629A); assay: fluorescence polarisation
T3 sequence (looked up): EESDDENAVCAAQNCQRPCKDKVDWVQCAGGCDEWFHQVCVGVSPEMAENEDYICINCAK

[6] = molecular target: B4; assay: fluorescence polarisation
[7] = molecular target: T4, GST-JARID1A PHD3 D1629N (UniProt P29375 1601-1660, D1629N); assay: fluorescence polarisation
T4 sequence (looked up): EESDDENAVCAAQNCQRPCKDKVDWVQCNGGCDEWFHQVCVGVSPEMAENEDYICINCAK

[8] = molecular target: T5, GST-JARID1A PHD3 D1624A (UniProt P29375 1601-1660, D1624A); assay: fluorescence polarisation
T5 sequence (looked up): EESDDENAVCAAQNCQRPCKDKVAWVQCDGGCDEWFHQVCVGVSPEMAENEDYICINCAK

[9] = molecular target: (HQ)5-HaloTag-BHC80 PHD (UniProt Q96BD5 486-543)
[10] = molecular target: T6, (HQ)5-HaloTag-AIRE PHD1 (UniProt O43918 293-354); assay: HaloTag plate binding assay
T6 sequence (looked up): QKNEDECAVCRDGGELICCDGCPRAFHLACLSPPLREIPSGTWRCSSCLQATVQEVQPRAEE

[11] = molecular target: T7, (HQ)5-HaloTag-JARID1A PHD3 (UniProt P29375 1601-1660); assay: pull-down
T7 sequence (looked up): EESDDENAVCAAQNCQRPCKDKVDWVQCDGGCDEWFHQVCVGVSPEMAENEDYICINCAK

[12] = molecular target: T7, (HQ)5-HaloTag-JARID1A PHD3; assay: HaloTag plate binding assay
[13] = molecular target: T8, H3(1-19)K9me3K19fluo (UniProt P68431 2-20, trimethyl-lysine at position 9; fluorescein on lysine 19 (K19fluo)); assay: fluorescence polarisation
T8 chain: ARTKQTARKSTGGKAPRKK

B1: GST-JMJD2A DTD (domain or fragment, UniProt O75164 895-1011, looked up)
chain: ALQSITAGQKVISKHKNGRFYQCEVVRLTTETFYEVNFDDGSFSDNLYPEDIVSQDCLQFGPPAEGEVVQVRWTDGQVYGAKFVASHPIQMYQVEFEDGSQLVVKRDDVYTLDEELP
In the case of B1, the “protein concentration at 90% fraction bound” value [1] is reported as 4 µM.

ARTKQTARKSTEW (Kme3 (trimethyl-lysine) at position 4; E(PEG-biotin) at position 12) [biotinylated histone H3 (1-11) peptide trimethylated at lysine 4]: binds [2].

B2: GST-AIRE PHD1 (domain or fragment, UniProt O43918 293-354, looked up)
chain: QKNEDECAVCRDGGELICCDGCPRAFHLACLSPPLREIPSGTWRCSSCLQATVQEVQPRAEE
In the case of B2, the “protein concentration at 90% fraction bound” value [3] is reported as 4 µM.

B3: GST-RAG2 PHD (domain or fragment, UniProt P21784 414-487, looked up)
chain: GYWITCCPTCDVDINTWVPFYSTELNKPAMIYCSHGDGHWVHAQCMDLEERTLIHLSEGSNKYYCNEHVQIARA
With B3 the “protein concentration at 90% fraction bound” value [1] was 25 µM.

B4 was tested, and the “protein concentration at 90% fraction bound” value [1] was 1 µM.

A Kd [4] of 0.634 ± 0.08 µM, a Kd [5] of 4.05 ± 0.691 µM and a Kd [6] of 0.294 ± 0.046 µM were found for B5 in this work. It also gave a Kd [7] of 3.81 ± 0.551 µM and a Kd [8] of 1.15 ± 0.145 µM.

A Kd [6] of 9.35 ± 1.57 µM was found for B6 in this work.

B7: GST-BHC80 PHD (domain or fragment, UniProt Q96BD5 486-543, looked up)
chain: IHEDFCSVCRKSGQLLMCDTCSRVYHLDCLDPPLKTIPKGMWICPRCQDQMLKKEEAI
For B7, the “protein concentration at 90% fraction bound” value [3] was 60 µM.

In the case of ARTKQTARKSTEW (E(PEG-biotin) at position 12) [biotinylated histone H3 (1-11) peptide, unmethylated], the Kd [9] is reported as > 15 µM and the binding result [10] is reported as “binds”.

An IC50 [11] of 13.6 ± 4.5 µM and an IC50 [12] of 2.97 ± 0.35 µM were found for ARTKQTARKSTW (Kme3 (trimethyl-lysine) at position 4) [unlabeled (no biotin) histone H3 (1-11) K4me3 peptide] in this work.

B8: GST-UHRF1 TTD (domain or fragment)
chain: MWDETELGLYKVNEYVDARDTNMGAWFEAQVVRVTRKAPSRDEPCSSTSRPALEEDVIYHVKYDDYPENGVVQMNSRDVRARARTIIKWQDLEVGQVVMLNYNPDNPKERGFWYDAEISRKRETRTARELYANVVLGDDSLNDCRIIFVDEVFKIERPGE
B8 was tested, and the “protein concentration at 90% fraction bound” value [13] was 18 µM.
